Measurements taken from article PMC9723642.

What was measured:
Assay in all cases: EMSA
Conditions in all cases: EMSA: 10 mM Tris-HCl pH 7.5, 1 mM EDTA, 100 mM KCl, 0.1 mM DTT, 5% glycerol, 0.01 mg/mL BSA, 20 nM RNA, room temperature, 1 h; pull-down: RNA folded in 100 mM …
[1] = system: NCL* (PRMT1-methylated recombinant NCL) (Homo sapiens)
[2] = system: recombinant NCL (Homo sapiens)
[3] = system: RGG* methylated peptide (Homo sapiens)
[4] = system: RGG peptide (Homo sapiens)

With EBNA1 the Kd [1] was 202 nM, the Kd [2] was 306 nM and the Kd [3] was 0.107 nM. The Kd [4] was 0.154 nM.
